Molecular target: the molecule itself
Assay: circular dichroism; STIM1 CC3 alone in 20 mM Bis-Tris, pH 6.0, without TFE, 20 °C; ratio [CD]222/[CD]208 as coiled-coil index

B1: human STIM1 coiled-coil3 (CC3) fragment (amino acids 388–430) (domain or fragment, UniProt Q13586 388-430, looked up)
chain: NTLFGTFHVAHSSSLDDVDHKILTAKQALSEVTAALRERLHRW
notes: Cloned in pGEX 4T-1 (GST tag with thrombin cleavage site); The NMR sample was 15N/13C labelled; Purification follows Rathner et al. 2018; also called STIM1 CC3; CC3 domain; source: E. coli BL21, purified (protocol of Rathner et al. 2018, slightly modified)
B1: binds.
